According to paper PMC2884070 (Journal of hepatology, 2010):

B1: full-length NS5A JFH-1-His (genotype 2a) (natural protein)
chain: SGSWLRDVWDWVCTILTDFKNWLTSKLFPKLPGLPFISCQKGYKGVWAGTGIMTTRCPCGANISGNVRLGSMRITGPKTCMNTWQGTFPINCYTEGQCAPKPPTNYKTAIWRVAASEYAEVTQHGSYSYVTGLTTDNLKIPCQLPSPEFFSWVDGVQIHRFAPTPKPFFRDEVSFCVGLNSYAVGSQLPCEPEPDADVLRSMLTDPPHITAETAARRLARGSPPSEASSSVSQLSAPSLRATCTTHSNTYDVDMVDANLLMEGGVAQTEPESRVPVLDFLEPMAEEESDLEPSIPSECMLPRSGFPRALPAWARPDYNPPLVESWRRPDYQPPTVAGCALPPPKKAPTPPPRRRRTVGLSESTISEALQQLAIKTFGQPPSSGDAGSSTGAGAAESGGPTSPGEPAPSETGSASSMPPLEGEPGDPDLESDQVELQPPPQGGGVAPGSGSGSWSTCSEEDDTTVCC
B2: full-length NS5A H77-His (genotype 1a) (natural protein)
chain: SGSWLRDIWDWICEVLSDFKTWLKAKLMPQLPGIPFVSCQRGYRGVWRGDGIMHTRCHCGAEITGHVKNGTMRIVGPRTCKNMWSGTFFINAYTTGPCTPLPAPNYKFALWRVSAEEYVEIRRVGDFHYVSGMTTDNLKCPCQIPSPEFFTELDGVRLHRFAPPCKPLLREEVSFRVGLHEYPVGSQLPCEPEPDVAVLTSMLTDPSHITAEAAGRRLARGSPPSMASSSASQLSAPSLKATCTANHDSPDAELIEANLLWRQEMGGNITRVESENKVVILDSFDPLVAEEDEREVSVPAEILRKSRRFAPALPVWARPDYNPLLVETWKKPDYEPPVVHGCPLPPPRSPPVPPPRKKRTVVLTESTLPTALAELATKSFGSSSTSGITGDNTTTSSEPAPSGCPPDSDVESYSSMPPLEGEPGDPDLSDGSWSTVSSGADTEDVVCC
B3: domain 2 of JFH-1 NS5A (domain or fragment)
chain: NTYDVDMVDANLLMEGGVAQTEPESRVPVLDFLEPMAEEESDLEPSIPSECMLPRSGFPRALPAWARPDYNPPLVESWRRPDYQPPTVAGCALP
B4: full-length NS5A Con1-His (genotype 1b) (natural protein)
chain: SGSWLRDVWDWICTVLTDFKTWLQSKLLPRLPGVPFFSCQRGYKGVWRGDGIMQTTCPCGAQITGHVKNGSMRIVGPRTCSNTWHGTFPINAYTTGPCTPSPAPNYSRALWRVAAEEYVEVTRVGDFHYVTGMTTDNVKCPCQVPAPEFFTEVDGVRLHRYAPACKPLLREEVTFLVGLNQYLVGSQLPCEPEPDVAVLTSMLTDPSHITAETAKRRLARGSPPSLASSSASQLSAPSLKATCTTRHDSPDADLIEANLLWRQEMGGNITRVESENKVVILDSFEPLQAEEDEREVSVPAEILRRSRKFPRAMPIWARPDYNPPLLESWKDPDYVPPVVHGCPLPPAKAPPIPPPRRKRTVVLSESTVSSALAELATKTFGSSESSAVDSGTATASPDQPSDDGDAGSDVESYSSMPPLEGEPGDPDLSDGSWSTVSEEASEDVVCC

Target: GST-CypA (cyclophilin A) (human, UniProt P62937 1-165)
Assay: radioligand binding

Binder | Kd
B1 | 108 µM
B2 | 131 µM
B3 | 69 µM
B4 | 126 µM
